Laboratory results as given in the supplement of paper PMC11246515.
± gives the standard deviation of the averaged measurements.

Test: total protein half-life in vivo (active degradation + dilution); higher = more stable protein
[1] = E. coli NCM3722 delta-clpP, growth: N-lim chemostat, doubling time 6 h
[2] = E. coli NCM3722 delta-smpB, growth: N-lim chemostat, doubling time 6 h
[3] = wild type E. coli NCM3722, growth: C-lim chemostat, doubling time 3 h
[4] = wild type E. coli NCM3722, growth: C-lim chemostat, doubling time 6 h
[5] = wild type E. coli NCM3722, growth: N-lim chemostat, doubling time 6 h
[6] = wild type E. coli NCM3722, growth: N-lim chemostat, doubling time 12 h
[7] = E. coli NCM3722 delta-clpP delta-lon delta-hslV, growth: N-lim chemostat, doubling time 6 h
[8] = E. coli NCM3722 delta-hslV, growth: N-lim chemostat, doubling time 6 h
[9] = E. coli NCM3722 delta-lon, growth: N-lim chemostat, doubling time 6 h
[10] = wild type E. coli NCM3722, growth: C-lim chemostat, doubling time 12 h
[11] = wild type E. coli NCM3722, growth: P-lim chemostat, doubling time 6 h
[12] = wild type E. coli NCM3722, growth: P-lim chemostat, doubling time 12 h

## MSDTLLTLRDVHINFPARKNWLGKTTEHVHAINGIDLQIRRGETLGIVGESGCGKSTLAQLLMGMLQPSHGQYIRSGSQRIMQMVFQDPLSSLNPRLPVWRIITEPLWIAKRSSEQQRRALAEELAVQVGIRPEYLDRLPHAFSGGQRQRIAIARALSSQPDVIVLDEPTSALDISVQAQILNLLVTLQENHGLTYVLISHNVSVIRHMSDRVAVMYLGQIVELGDAQQVLTAPAHPYTRLLLDSLPAIDKPLEEEWALRKTDLPGNRTLPQGCFFYERCPLATHGCEVRQSLAIREDGRELRCWRAL
[1]
  total protein half-life in vivo: 3.45 h
[2]
  total protein half-life in vivo: 4.17 ± 0.074 h
[3]
  total protein half-life in vivo: 1.74 h
[4]
  total protein half-life in vivo: 4.55 h
[5]
  total protein half-life in vivo: 4.44 h
[6]
  total protein half-life in vivo: 6.31 ± 0.42 h

## MFTGIVQGTAKLVSIDEKPNFRTHVVELPDHMLDGLETGASVAHNGCCLTVTEINGNHVSFDLMKETLRITNLGDLKVGDWVNVERAAKFSDEIGGHLMSGHIMTTAEVAKILTSENNRQIWFKVQDSQLMKYILYKGFIGIDGISLTVGEVTPTRFCVHLIPETLERTTLGKKKLGARVNIEIDPQTQAVVDTVERVLAARENAMNQPGTEA [P0AFU8]
[7]
  total protein half-life in vivo: 4.8 ± 0.2 h
[1]
  total protein half-life in vivo: 4.397 ± 0.01 h
[8]
  total protein half-life in vivo: 4.123 ± 0.0054 h
[9]
  total protein half-life in vivo: 4.774 ± 0.047 h
[2]
  total protein half-life in vivo: 4.561 ± 0.029 h
[3]
  total protein half-life in vivo: 3.06 ± 0.28 h
[4]
  total protein half-life in vivo: 5.3745 ± 0.003 h
[10]
  total protein half-life in vivo: 12.1 ± 4.4 h
[5]
  total protein half-life in vivo: 4.25 ± 0.16 h
[6]
  total protein half-life in vivo: 6.8 ± 0.16 h
[11]
  total protein half-life in vivo: 5.96 ± 0.6 h
[12]
  total protein half-life in vivo: 11.6 ± 0.24 h

## MLNSFKLSLQYILPKLWLTRLAGWGASKRAGWLTKLVIDLFVKYYKVDMKEAQKPDTASYRTFNEFFVRPLRDEVRPIDTDPNVLVMPADGVISQLGKIEEDKILQAKGHNYSLEALLAGNYLMADLFRNGTFVTTYLSPRDYHRVHMPCNGILREMIYVPGDLFSVNHLTAQNVPNLFARNERVICLFDTEFGPMAQILVGATIVGSIETVWAGTITPPREGIIKRWTWPAGENDGSVALLKGQEMGRFKLGSTVINLFAPGKVNLVEQLESLSVTKIGQPLAVSTETFVTPDAEPAPLPAEEIEAEHDASPLVDDKKDQV [P0A8K1]
[7]
  total protein half-life in vivo: 6.31 ± 0.2 h
[1]
  total protein half-life in vivo: 6.33 ± 0.086 h
[8]
  total protein half-life in vivo: 5.99 ± 0.61 h
[9]
  total protein half-life in vivo: 5.79 ± 0.1 h
[2]
  total protein half-life in vivo: 6 ± 0.58 h
[3]
  total protein half-life in vivo: 2.76 ± 0.4 h
[4]
  total protein half-life in vivo: 6.32 ± 0.66 h
[10]
  total protein half-life in vivo: 12.8 ± 0.63 h
[5]
  total protein half-life in vivo: 6.81 ± 0.24 h
[11]
  total protein half-life in vivo: 6.16 ± 0.32 h
[12]
  total protein half-life in vivo: 13.3 ± 0.12 h

## MTWFIDRRLNGKNKSMVNRQRFLRRYKAQIKQSISEAINKRSVTDVDSGESVSIPTEDISEPMFHQGRGGLRHRVHPGNDHFVQNDRIERPQGGGGGSGSGQGQASQDGEGQDEFVFQISKDEYLDLLFEDLALPNLKQNQQRQLTEYKTHRAGYTANGVPANISVVRSLQNSLARRTAMTAGKRRELHALEENLAIISNSEPAQLLEEERLRKEIAELRAKIERVPFIDTFDLRYKNYEKRPDPSSQAVMFCLMDVSGSMDQSTKDMAKRFYILLYLFLSRTYKNVEVVYIRHHTQAKEVDEHEFFYSQETGGTIVSSALKLMDEVVKERYNPAQWNIYAAQASDGDNWADDSPLCHEILAKKLLPVVRYYSYIEITRRAHQTLWREYEHLQSTFDNFAMQHIRDQDDIYPVFRELFHKQNATAKG
[7]
  total protein half-life in vivo: 2.93 ± 0.22 h
[1]
  total protein half-life in vivo: 2.2 ± 0.052 h
[8]
  total protein half-life in vivo: 1.52 ± 0.018 h
[9]
  total protein half-life in vivo: 1.525 ± 0.004 h
[2]
  total protein half-life in vivo: 1.49 ± 0.047 h
[3]
  total protein half-life in vivo: 1.37 ± 0.082 h
[4]
  total protein half-life in vivo: 1.6 ± 0.063 h
[10]
  total protein half-life in vivo: 1.95 ± 0.46 h
[5]
  total protein half-life in vivo: 1.47 ± 0.039 h
[6]
  total protein half-life in vivo: 1.64 ± 0.027 h
[11]
  total protein half-life in vivo: 1.98 ± 0.3 h
[12]
  total protein half-life in vivo: 3.11 ± 0.88 h

## MDRIIEKLDHGWWVVSHEQKLWLPKGELPYGEAANFDLVGQRALQIGEWQGEPVWLVQQQRRHDMGSVRQVIDLDVGLFQLAGRGVQLAEFYRSHKYCGYCGHEMYPSKTEWAMLCSHCRERYYPQIAPCIIVAIRRDDSILLAQHTRHRNGVHTVLAGFVEVGETLEQAVAREVMEESGIKVKNLRYVTSQPWPFPQSLMTAFMAEYDSGDIVIDPKELLEANWYRYDDLPLLPPPGTVARRLIEDTVAMCRAEYE
[1]
  total protein half-life in vivo: 5.5 ± 1.5 h
[8]
  total protein half-life in vivo: 5.52 ± 2 h
[9]
  total protein half-life in vivo: 4.5929 ± 0.0003 h
[2]
  total protein half-life in vivo: 4.57 ± 0.72 h
[3]
  total protein half-life in vivo: 3.06 ± 1.1 h
[4]
  total protein half-life in vivo: 5.09 ± 0.28 h
[10]
  total protein half-life in vivo: 11.1 ± 0.68 h
[5]
  total protein half-life in vivo: 4.5 ± 0.24 h
[6]
  total protein half-life in vivo: 6.936 ± 0.055 h
[11]
  total protein half-life in vivo: 5.97 ± 0.23 h
[12]
  total protein half-life in vivo: 11.17 ± 0.051 h

## MSQVSLSQQLKEGNLFAEQCPSREVLKHVTSRWGVLILVALREGTHRFSDLRRKIGGVSEKMLAQSLQALEQDGFLNRIAYPVVPPHVEYSLTPLGEQVSEKVAALADWIELNLPEVLAVRDERAA [P0ACN2]
[7]
  total protein half-life in vivo: 4.79 h
[9]
  total protein half-life in vivo: 2.18 h
[2]
  total protein half-life in vivo: 2.12 h
[3]
  total protein half-life in vivo: 2.01 h
[4]
  total protein half-life in vivo: 3.02 ± 0.26 h
[10]
  total protein half-life in vivo: 3.86 h

## MSQATSMRKRHRFNSRMTRIVLLISFIFFFGRFIYSSVGAWQHHQSKKEAQQSTLSVESPVQR
[7]
  total protein half-life in vivo: 4.55 h
[1]
  total protein half-life in vivo: 4.47 h
[8]
  total protein half-life in vivo: 4.32 h
[9]
  total protein half-life in vivo: 4.57 ± 0.97 h
[2]
  total protein half-life in vivo: 4.09 ± 0.36 h
[3]
  total protein half-life in vivo: 1.7 ± 0.046 h
[4]
  total protein half-life in vivo: 3.19 h
[10]
  total protein half-life in vivo: 5.95 h
[5]
  total protein half-life in vivo: 3.526 ± 0.027 h
[6]
  total protein half-life in vivo: 7.56 ± 0.76 h
[12]
  total protein half-life in vivo: 4.32 ± 0.086 h
